Test [1] deals with T1, P112A (Homo sapiens, UniProt P18827).
T1 construct: clone of the alanine scanning library on HEK-293T cells; m17 with one substitution; also called CD138 P112A
T1 sequence (CD138 (SDC1), full length, point mutant, looked up): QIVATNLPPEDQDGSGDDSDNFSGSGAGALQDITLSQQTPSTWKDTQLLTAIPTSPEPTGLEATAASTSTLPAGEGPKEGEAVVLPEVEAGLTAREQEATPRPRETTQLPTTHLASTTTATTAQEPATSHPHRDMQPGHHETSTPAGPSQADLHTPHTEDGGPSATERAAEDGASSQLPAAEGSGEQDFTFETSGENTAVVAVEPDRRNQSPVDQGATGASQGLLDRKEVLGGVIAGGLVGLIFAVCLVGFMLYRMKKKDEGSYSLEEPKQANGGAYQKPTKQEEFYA
The experiment in a line: alanine scan: flow cytometry on HEK-293T cells expressing the mutant clone, 4320 Fab 0.50 ug/mL, normalised to WT CD138; Range %WT Binding 9; Normalized 4320 vs. BB4 21.6. On the procedure:
(§1) Serial dilutions of each MAb were tested for immunoreactivity against cells expressing target protein (WT) or vector alone. Validation of target expression and optimization of detection and binding of anti-CD138 antibodies both by flow cytometry was completed in replicate (N=4). The optimal screening concentration for each MAb was determined based on the raw signal values and signal-to-background calculations specifically optimized for each test article. Optimized parameters included the use of 10% goat serum as blocking reagent. Primary antibody staining was for 60 minutes at 25° C. Wash buffer include phosphate buffered saline (divalent metal ion free), pH 7.4. […] Secondary antibodies were diluted 1:400 and incubated for 30 minutes at 25° C.
(§2) Library screens of very-high-affinity mAbs can fail to yield critical residues for antibody binding due to deficiencies of such an assay to detect and differentiate critical vs. less critical binding based on affinity and quantification of cell binding. One common approach in the literature is the use of monovalent antibody derived fragments such as Fab usually weakens binding sufficiently to allow identification of critical residues for binding. […] Binding of each test Ab to each mutant clone in the alanine scanning library was determined, in duplicate, and likewise evaluated by flow cytometry.
A general note: Flow cytometry measures light scatter and fluorescence of single cells or particles in a stream.

For test [2], the target named is T2, E111A (Homo sapiens, UniProt P18827).
T2 construct: clone of the alanine scanning library on HEK-293T cells; m17 with one substitution; also called CD138 E111A
T2 sequence (CD138 (SDC1), full length, point mutant, looked up): T1 sequence (CD138 (SDC1), full length, point mutant, looked up) with E89A, A90P
Put plainly: alanine scan: flow cytometry on HEK-293T cells expressing the mutant clone, 4320 Fab 0.50 ug/mL, normalised to WT CD138; Range %WT Binding 8; Normalized 4320 vs. BB4 10.4. The protocol:
as §1, §2

Test [3] concerns the target T3, A168S (Homo sapiens, UniProt P18827).
T3 construct: clone of the alanine scanning library on HEK-293T cells; m17 with one substitution (alanine changed to serine); also called CD138 A168S
T3 sequence (CD138 (SDC1), full length, point mutant, looked up): T1 sequence (CD138 (SDC1), full length, point mutant, looked up) with A90P, A146S
The experiment in a line: alanine scan: flow cytometry on HEK-293T cells expressing the mutant clone, 4320 Fab 0.50 ug/mL, normalised to WT CD138; Range %WT Binding 3; Normalized 4320 vs. BB4 57.9. On the procedure:
as §1, §2

The target of test [4] is T4, G241A (Homo sapiens, UniProt P18827).
T4 construct: clone of the alanine scanning library on HEK-293T cells; m17 with one substitution; also called CD138 G241A
T4 sequence (CD138 (SDC1), full length, point mutant, looked up): T1 sequence (CD138 (SDC1), full length, point mutant, looked up) with A90P, G219A
The experiment in a line: alanine scan: flow cytometry on HEK-293T cells expressing the mutant clone, 4320 Fab 0.50 ug/mL, normalised to WT CD138; Range %WT Binding 14; Normalized 4320 vs. BB4 53.5. On the procedure:
as §1, §2

Test [5] concerns the target T5, T143A (Homo sapiens, UniProt P18827).
T5 construct: clone of the alanine scanning library on HEK-293T cells; m17 with one substitution; also called CD138 T143A
T5 sequence (CD138 (SDC1), full length, point mutant, looked up): T1 sequence (CD138 (SDC1), full length, point mutant, looked up) with A90P, T121A
The experiment in a line: alanine scan: flow cytometry on HEK-293T cells expressing the mutant clone, 4320 Fab 0.50 ug/mL, normalised to WT CD138; Range %WT Binding 6; Normalized 4320 vs. BB4 53.2. The protocol: as §1, §2

Residue numbers refer to the chain shown, from its start.

B1: Fab fragment of mAb 4320 (Fab, V domains shown)
VH: QVQLVQSGAEVKKPGASVKVSCKASGYSFSSYYMHWVRQAPGQGLEWMGTIHPSDSTTNYNQKFQGRVTMTVDTSTRTAYMELSSLRSEDTAVYYCANFVYWGQGTTVTVSS
VL: DIVMTQTPLSLSVTPGQPASISCKSSKSLLYKDGKTYLNWFLQKPGQSPQLLIYVVSTRASGVPDRFSGSGSGTDFTLKISRVEAEDVGVYYCQQLVEYPYTFGQGTKLEIKR
modifications: N-terminal Q1 observed as pyroglutamic acid (PCA) in the 138-2-5 complex
notes: In the crystal structures heavy chain residues 1-213 were traced; also called Fab4320
With B1, the “Mean %WT Binding” value in test [1] amounted to 22.6 %WT; in test [2] it was 13 %WT; in test [3], 44.9 %WT; in test [4], 53.5 %WT; in test [5], 30.8 %WT.

The values above are taken from patent publication US20230348614A1 (VISTERRA, published 2023).
